In this data set the target is NTD (SARS-CoV-2) (UniProt P0DTC9). As to the kind of experiment: fluorescence anisotropy. The following applies: Anisotropy: 50 mM Na phosphate pH 6.5, 150 mM NaCl, 1 mM NaN3, 50 nM RNA; EMSA: 20 mM Tris pH 7.5, 150 mM NaCl, 1 mM DTT, room temp, 25 uM RNA; NTD NMR: 20 mM …. In general terms: Polarisation of emitted light reports the rotation of a fluorescent probe.

pKd: −log10 of the molar value.

For “GGCACAUGGACGUC / GACGUCCAUGUGCC [ds-14mer]”, the pKd is 4.52.

Broadly, the pKd is the Kd on a negative log10 scale, so that one unit is a factor of ten.

The values above are taken from publication PMC10605006.
